In patent US20180155451A1 (published 2018):

Experiments:
[1] = target: T1, Protein A (rProtein A Sepharose Fast Flow) (UniProt P38507 37-327); assay: Protein A affinity chromatography (rProtein A Sepharose Fast Flow); the species is 3.2% of the Protein G-purified control but is not found in the pH 3.6 or the pH 2.7 elution fraction (cation exchange analysis)
T1 construct: Bought chromatography resin
Procedure: (§1) CM filtered through ϕ0.22-μm filter was loaded onto rProtein A Sepharose Fast Flow column (GE Healthcare) equilibrated with D-PBS. Washes 1 and 2 and Elutions 1 and 2 shown in Table 76 were carried out (Elution 1 alone was performed for Q407-z106/J300-z107/L210-k). […] The quantity of CM to be loaded was adjusted in a way that the quantity of the loaded antibody is 20 mg/ml resine. Fractions eluted under each condition were collected and the components contained in each elution fraction were identified by cation exchange chromatography analysis. […] Samples purified by batchwise elution were used as controls.
(§2) The values represent the area of elution peak expressed in percentage.

[2] = target: T1, Protein A (rProtein A Sepharose Fast …); assay: Protein A affinity chromatography (rProtein A Sepharose Fast Flow); the species is 5.8% of the Protein G-purified control but is not found in the pH 3.6 elution fraction (cation exchange analysis)
Procedure: as §1, §2

Binder | binding result [1] | binding result [2]
J142-z73/L180-k (antibody, human IgG4 S228P, kappa, also called homomeric antibody against FX) heavy: QVQLVQSGSELKKPGASVKVSCKASGYTFTDNNMDWVRQAPGQGLEWMGDINTRSGGSIYNEEFQDRVTMTIDKSTGTAYMELSSLRSEDTAVYYCARRRSYGYYHDEWGEGTLVTVSSASTKGPSVFPLAPCSRSTSESTAALGCLVKDYFPEPVTVSWNSGALTSGVHTFPAVLQSSGLYSLSSVVTVPSSSLGTKTYTCNVDHKPSNTKVDKRVESKYGPPCPPCPAPEFLGGPSVFLFPPKPKDTLMISRTPEVTCVVVDVSQEDPEVQFNWYVDGVEVHNAKTKPREEQFNSTYRVVSVLTVLHQDWLNGKEYKCKVSNKGLPSSIEKTISKAKGQPREPQVYTLPPSQEEMTKNQVSLTCLVKGFYPSDIAVEWESNGQPENNYKTTPPVLDSDGSFFLYSRLTVDKSRWQEGNVFSCSVMHEALHNRFTQESLSLSP light: DIQMTQSPSSLSASVGDRVTITCKASRNIERNLAWYQQKPGQAPELLIYSASRKESGVPDRFSGSRYGTDFTLTISSLQPEDLATYYCQQYYSPPLTFGGGTKVEIKRTVAAPSVFIFPPSDEQLKSGTASVVCLLNNFYPREAKVQWKVDNALQSGNSQESVTEQDSKDSTYSLSSTLTLSKADYEKHKVYACEVTHQGLSSPVTKSFNRGEC | no binding | 
J300-z107/L210-k (antibody, human IgG4 S228P, kappa, Homomeric by-product in the culture medium of cells that express Q407-z106/J300-z107/L210-k; The H chain gene was made by linking z107 downstream of J300; also called homomeric antibody against FX) heavy: QVQLVQSGSELKKPGASVKVSCKASGYTFTDNNMDWVRQAPGQGLEWMGDINTRSGGSIYNEEFQDRVIMTVDKSTDTAYMELSSLRSEDTAVYHCARRKSYGYYLDEWGEGTLVTVSSASTKGPSVFPLAPCSRSTSESTAALGCLVKDYFPEPVTVSWNSGALTSGVHTFPAVLQSSGLYSLSSVVTVPSSSLGTQTYTCNVDHKPSNTKVDKRVESKYGPPCPPCPAPEFLGGPSVFLFPPKPKDTLMISRTPEVTCVVVDVSQEDPEVQFNWYVDGVEVHNAKTKPREEQYNSTYRVVSVLTVLHQDWLNGKEYKCKVSNKGLPSSIEKTISKAKGQPREPQVYTLPPSQEEMTKNQVSLTCLVKGFYPSDIAVEWESNGQPENNYKTTPPVLDSDGSFFLYSKLTVDKSRWQEGNVFSCSVMHEALHNRYTQESLSLSP light: DIQMTQSPSSLSASVGDRVTITCKASRNIERNLAWYQQKPGQAPELLIYSASRKESGVPDRFSGSRYGTDFTLTISSLQPEDIATYYCQQYSSPPLTFGGGTKVEIKRTVAAPSVFIFPPSDEQLKSGTASVVCLLNNFYPREAKVQWKVDNALQSGNSQESVTEQDSKDSTYSLSSTLTLSKADYEKHKVYACEVTHQGLSSPVTKSFNRGEC |  | no binding
